Data as given in patent US12385055B2, “Compositions and methods for production of salidroside, icariside D2, and precursors of salidroside and icariside D2” (Whitehead Institute for Biomedical Research, priority 2017, dated 2025).

Columns and labels:
[1] = substrate: OCCc1ccc(O)cc1; assay: Michaelis-Menten kinetics of RrT4GT (RrUGT3), tyrosol 4-O-glucosylation; format: biochemical, Rhodiola rosea; conditions: other: substrate tyrosol (0.01-5.0 mM), 10 mM UDP-glucose, pH 8.0, 30° C., 10 min
Protocol: (§1) Kinetic characterization of UGTs was conducted in 200 μL reaction buffer (50 mM Tris, pH 8.0) containing 10 mM UDP-glucose and various concentrations of tyrosol (0.01-5.0 mM). Reactions were started with addition of recombinant enzyme, incubated at 30° C. for 10 minutes, and quenched by addition of 200 μL of methanol. The reaction mixed was then analyzed by LC-HRAR-MS as described above. Compounds were separated by reversed-phase chromatography with a ramp gradient of solvent A (0.1% formic acid in H2O) and solvent B (0.1% formic acid in acetonitrile): 5% solvent B for 0.5 min, 5-55% solvent B over 6 min, 55-5% solvent B over 1.0 min and a final equilibration of 5% solvent B for 1 min with a flow rate at 0.6 mL/min. Product formation was measured using select ion monitoring in positive mode for a centroid center mass of 318.15. Product mass was calculated by comparison to a standard curve of the NMR verified plant purified salidroside and icariside D2 samples.
(§2) Kinetic constants such as Km and Vmax were determined by fitting raw data to the Michaelis-Menten equation using the nonlinear regression function in Prism (version 7.0).

[2] = substrate: OCCc1ccc(O)cc1; assay: Michaelis-Menten kinetics of RrT8GT (RrUGT33), tyrosol 8-O-glucosylation; format: biochemical, Rhodiola rosea; conditions: other: substrate tyrosol (0.01-5.0 mM), 10 mM UDP-glucose, pH 8.0, 30° C., 10 min
Protocol: as §1, §2

tyrosol = assay: In vivo tyrosol glycosylation assay in yeast expressing Rr4HPAAS; format: cell-based; conditions: UGT on 2-micron TEF-promoter plasmid in S. cerevisiae BY4743 expressing Rr4HPAAS
Text: To facilitate functional assessment of a large number of UGT candidates, an in vivo tyrosol glycosylation assay in the yeast S. cerevisiae was devised. Initial iterations of the tyrosol-producing yeast strains were generated by transforming wild type S. cerevisiae BY4743 with separate 2-micron TEF-promoter expression plasmids containing Rr4HPAAS and Rr4HPAR1, respectively. It was later observed that yeast contains endogenous ADH activity sufficient to reduce 4-hydroxyphenylacetaladehyde produced by Rr4HPAAS to tyrosol. Therefore, the Rr4HPAR1-containing plasmid was omitted in the final tyrosol-producing strain (FIG. 18). Each of the 34 R. rosea UGT candidate genes, carried on the yeast 2-micron TEF-promoter expression plasmids, was transformed into the background strain expressing Rr4HPAAS. After auxotrophic selection, colonies were cultured, harvested and subjected to metabolic profiling by LC-HRAM-MS. […] The UGTs that contain T4GT activity appear to be phylogenetically diverse with representative enzymes falling into the D, G, E and K groups, while all of identified T8GTs cluster within the G group (FIG. 4A).
Crown tissue and root tissue of a three-month-old R. rosea plant was harvested and stored at −80° C. before subsequent metabolomic analysis. Various transgene-carrying S. cerevisiae BY4743 strains and transiently transformed N. benthamiana plants were generated to test the activity of candidate genes involved in the tyrosol glycoside biosynthesis. 3 mL of saturated S. cerevisiae culture was used to inoculate 50 mL of synthetic minimal media (SD) in a shake flask. After 24 hours of shaking at 30° C., the culture was pelleted by centrifugation, washed with water, and stored at −80° C. before further processing. N. benthamiana leaf tissue was harvested 5 days after Agrobacterium infiltration and was stored at −80° C. before further processing. Frozen yeast or plant tissue was disrupted with a TissueLyser (Qiagen) using acid-washed metal beads in 50% methanol (500 μL per 100 mg fresh weight). The extracts were then analyzed by LC-HRAM-MS. Metabolite profiling was conducted on a QExactive benchtop orbitrap mass spectrometer equipped with an Ion Max source and a HESI II probe, which was coupled to a Dionex UltiMate 3000 UPLC system (Thermo Fisher Scientific). 2 μL of each sample was injected onto a 150×2.1 mm ZIC-pHILIC column (5 μm particle size, EMD Millipore). Solvent A was 20 mM ammonium carbonate, 0.1% ammonium hydroxide; solvent B was acetonitrile. The column oven and autosampler tray were held at 25° C. and 4° C., respectively. The chromatographic gradient was run at a flow rate of 0.15 mL/min as follows: 0-20 min, linear gradient from 80% to 20% solvent B; 20-20.5 min, linear gradient from 20% to 80% solvent B; 20.5-28 min, hold at 80% solvent B. The mass spectrometer was operated in full-scan, polarity-switching mode with the spray voltage set to 3.0 kV, the heated capillary held at 275° C., and the HESI probe held at 350° C. The sheath gas flow was set to 40 units, the auxiliary gas flow was set to 15 units, and the sweep gas flow was set to 1 unit. The MS data acquisition was performed in a range of 70-1000 m/z, with the resolution set at 70,000, the AGC target at 10 e6, and the maximum injection time at 20 msec. The raw data was converted to mzML format using MSConvert (Chambers et al., 2012), and analyzed using MetaboAnalyst (Xia and Wishart, 2016) and MZmine2 (Pluskal et al., 2010).

B1: Rhodiola rosea RrT4GT (RrUGT3), tyrosol:UDP-glucose 4-O-glucosyltransferase, SEQ ID NO: 8 (Rhodiola rosea) (protein)
chain: MSGTPHIAILPSPGMGHLIPMAEFAKRLVHHHNFSITFVIPTDGPPSSAYQQVLTSLPSSIDHIFLPQVDLTDVVSQSPAHPRIETLISLTVARSLSSLRTTLSSLQSSKNLVSLVVDLFGTDAFDPAIELGISPYIFFPSTAMTLSLFLYMPQLDKSVTCEFRHMTDLVRIPGCVPVRGSDLFDPVQDRTDEAYKWVIHHSNRYPMAEGVIENSFMELEHGALKYLQTVQSGKPPVYAVGPLIKMDYDVDDSGSKIIEWLDDQPVGSVLFVSFGSGGTLSYEQMTELAHGLESSQQRFLWVVRSPNQIPNSTYFSVQSQKDPLAYLPEGFLNRTEGRGLVVSNWAPQAQILSHGSTGGFMSHCGWNSILESVVHGVPIIAWPLYAEQKMNSIIVVEDVKVALRPAGVGERVVERSEITAVVKALMEGEEGKKVRNRMKELKEAAARAVSDDGASTIAIADLAQKWRSSMKH
Q: B1 was tested. Which Km [1] did it give?
A: 4110 ± 80 µM

Q: What about the kcat [1] of the same molecule?
A: 481.6 ± 3.91 s⁻¹

Q: And the kcat/Km [1]?
A: 117000 M⁻¹ s⁻¹

B2: Rhodiola rosea RrT8GT (RrUGT33), tyrosol:UDP-glucose 8-O-glucosyltransferase, SEQ ID NO: 20 (Rhodiola rosea) (protein)
chain: MSLIEKPLTAIETREKPHAVCIPYPAQGHINPMMQLAKLLHHSGFHITFVHTEYNYDRLVKSQGSACVAGLPDFRFEAIPDGLPSTNGDVTQDIPLLSSSTSKTCLKPFKELLKRLQDKCKELPDDVPPLSCIVSDAAMSFTIDASEEFGVPIALLWTASACGFLGYTHYPYLIDRGVIPLKDESQLTNGYLDMSIDGIPCMEGIRLRDLPSFLRTTDLDDMMFSYILHEIKQVSRGSAIILNTFEALDHDVLDSLSKIYQNVILPVGPLHVSLNKIPKHYPLQSLSSNLWKDDTDCIPWLSSKASKSVIYVNFGSITTVSPKQIVEFAWGLANSKHPFLWIIRPDLVAGEASIIPQDFMDETKGRGLLAGWCDQELVLNHPSIGGFLTHCGWNSIIESISAGVPTVCWPFFAEQQTNCWFACKKWCIGMEMHTDVKRDEVDKLLRELMEGDKGEELKRKATNWKRLAEEAVSSTGLSTLNFRTLVNQVLLSKTKHIR
Q: For B2, which Km [2] is on record?
A: 1370 ± 50 µM

Q: What about the kcat [2] of the same molecule?
A: 576.2 ± 5.68 s⁻¹

Q: And the kcat/Km [2]?
A: 421000 M⁻¹ s⁻¹

B3: RrUGT17: R. rosea UGT with both T8GT and T4GT activities (protein, listed as Rhodiola rosea)
chain: MGSLPSTKSHAVLVPYPAQGHINPFMQLAKLLHSKGFHITFVNNDHNHRRLLRTKGHDFVQGLEGLRFEAVPDGLPPSDRDATQDVPKLTESIYNKSMNQPFSDLLQRLNSTPGSPPVTCVISDVAMFFAWDVADELGIPNVQFWTASACGLLGYLQYDELLRRAIVPFKDENFMTDGSLEALIDWIPGMPNMRLKDLPSFMRTTSPDDVLFNYLRTITTKALKSSALLLNTFDDFEHEVVEEMKKMQPNIFLGGPLNMLLRHTSKTEITSLTTSLWKEDTHCLEWLDKQEPESVVYINYGSVTIMSDHHLNEFAWGLANSKHPFLWIVRPDVVRGESGTLPKEFYDEIKDRGLITSWCPQPEVLKHPSVGVYLTHCGWNSITESVAGGVPLMCWPFFAEQQTNSRFACTVWGTGVEVNADVKREELAEQVMEMLEGKRGQELRKNAKEWRRKAEEATDIGGSAYADFDRFMEKVVQFSV
Q: B3 was tested. Which “tyrosol glycosylation activity (T8GT / T4GT)” value (tyrosol) did it give?
A: both T8GT and T4GT activities

B4: RrUGT13: R. rosea UGT with regio-specific T4GT activity (protein, listed as Rhodiola rosea)
chain: MAEISLIFIPFPVISHLTPTIEIAKILLSRDHRLSITFLVIDIPQRDASLASLTTSIISDRLHFLDVVLPPNQHSQSSKPSGIAAIESAKPAVKKTISDLVVRSQSAASGPRIAGFVLDMFCTAMIDIATEFNLPSYIYYTCGSSFLSIVLHVQKLCDDDALDIADFKNSSVEFSLPEFSNLIPARLLPSMALDKDFSASFVGKARAFRKTKGILVNSLVELEPHAIESMKLDRSVPPIYSVGPVLNMNSNTAFIRQEQEKEIMEWLDQQPPASVVFLCFGSRGAFKPDQVKEIARGLESSGCRFLWALRQPSSSNVRFSPPTDYEDFSEVLPEGFLQRTYGVGKVIGWAPQTAVLDHPSVGGFVSHCGWNSILESLWFGVPIATWPLYAEQQMNAFEVVKEMKIGVEISLDYRLEMGGKQAEGSGIISGEQIERGIRDVMQEDSEVRKKVKLMMEKSREAVVEGGSSYNYIQNFISDLRTNIGL
Q: Which “tyrosol glycosylation activity (T8GT / T4GT)” value (tyrosol) does the source give for B4 here?
A: regio-specific T4GT activity
